Results taken from the supplement of paper PMC9170038.

Tested on: MS2 coat protein
Test: apparent KD of MS2 coat protein; designed switch direction (-1 OFF switch, 1 ON switch): -1; higher = weaker reporter binding
Procedure, shortened: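 Apparent KD, taken as the median over clusters for each design, was obtained by curve-fitting normalised cluster fluorescence. Designed RNA switches had been transcribed on Illumina chips by stalled E. coli RNA polymerase and titrated with SNAP-549-labelled MS2 coat protein, doubling from 0.7 or 1.5 nM to 3 µM.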

[1] = Eterna round: R95, input ligand: microRNA oligo, concentration not stated
[2] = Eterna round: R95, input ligand: FMN 200 uM
[3] = Eterna round: R95, input ligand: none
[4] = input ligand: microRNA oligo, concentration not stated

Sequence	apparent KD of MS2 coat protein (input ligand: FMN 200 uM) [µM]	apparent KD of MS2 coat protein (input ligand: none) [µM]	apparent KD of MS2 coat protein [1] [µM]	other results
UAUGACUGAGGAUAUUGUACUGCUGACAUGAGGAUCACCCAUGUAUGCUAACUCGGCCGUCGAGAAGGCAGUUAUG [BotMod 26 - Jieux - Exclusion 5] (Eterna round: R97, puzzle: Exclusion 5)	0.0165	0.052		
UAUGGUUAAGUCAGGAUAUGCACGCAGAGAACAAAGCAGAAGGGACAUGAGGAUCACCCAUGUAAAGUCGUGUU [Ex4 #77] (Eterna round: R97, puzzle: Brourd's mod of Exclusion 4)	0.0312	0.023		
UAUGGUUAAGUCAGGAUAUGCUCGUAGUGGUCUAUGCAGAAGGGACAUGAGGAUCACCCAUGUAUGGUCGUGUU [Ex4 #68] (Eterna round: R97, puzzle: Brourd's mod of Exclusion 4)	0.119	0.106		
UAUGUUGUUGUGAGGAUAUACUUAGUUUGACCGUAGUAGAAGGCACAUGAGGAUCACCCAUGUAGAUGCUUGGU [JR_BME4_Sub006] (puzzle: Brourd's mod of Exclusion 4)			0.00553	
UAUGUUGUUGUGAGGAUAUACUUUGUUUGGUCGUAGUAGAAGGCACAUGAGGAUCACCCAUGUAGAUUUUUGGU [JR_BME4_Sub009] (puzzle: Brourd's mod of Exclusion 4)			0.02	
UAUUAACAAGCUAGAUCUUACAUGAGGAUCACCCAUGUGCUCGUCUUAUAAGGUACUGUGACGAAAGUCACGGUACC [Sensor 3, v1 - 77] (puzzle: Sensor v3, turn-off variant 1)			0.149	apparent KD of MS2 coat protein [2]: 0.0227 µM; apparent KD of MS2 coat protein [3]: 0.0225 µM
UAUUAGCAAGCGAGAUCCCACAUGAGGAUCACCCAUGUGCUCGUCUUAUAAAAGACUGUGACGAAAGUCACGGUCAC [Mat - Sensor, turn-off var - Eli Mod - D21] (Eterna round: R97, puzzle: Sensor, turn-off variant 1)	0.0146	0.0157		
UAUUAGCAAGCGAGAUCCCACAUGAGGAUCACCCAUGUGCUCGUCUUAUAUAAGGUACUGUACGAUAGUACGGUACC [Mat - Sensor, turn-off var - Eli Mod - D28] (Eterna round: R97, puzzle: Sensor, turn-off variant 1)	0.0167	0.0146		
UAUUAGCAAGCGAGAUCCCACAUGAGGAUCACCCAUGUGCUCGUGCAUCCAGAAUUACUGGGUGCAGCUCGUCUUAU [Winner reversed engineered 12] (Eterna round: R97, puzzle: Sensor, turn-off variant 1)	0.0149	0.0147		
UAUUAGCAAGCGAGUCUUCACAUGAGGAUCACCCAUGUGCUCGUCUUAUAAGGUACUGUGACGAAAGUCACGGUACC [Eli 91 v32] (Eterna round: R97, puzzle: Sensor, turn-off variant 1)	0.0154	0.0148		
UAUUAGCAAGUAAGAUCCCACAUGAGGAUCACCCAUGUGCUCGUCAUAUCAGGUACGGAGCGGAAACUCCCGAUAUG [Sensor-V1 #89] (Eterna round: R97, puzzle: Sensor, turn-off variant 1)	0.106	0.0959		
UAUUAGCAAGUGAGGUCCCACAUGAGGAUCACCCAUGUGCUCGUCUUAUAAGGUACUGUGACGAUAGUCACGGUACC [Mat - Sensor, turn-off var - Eli Mod - D51] (Eterna round: R97, puzzle: Sensor, turn-off variant 1)	0.0454	0.0455		
UAUUAGCUAGGAUAUACAUGAGGAUCACCCAUGUCACGGGUCAACUUGUCCUAUGCGUGUAGAAGGAGCGACCC [JL Ceriza mod 5] (puzzle: Exclusion 3)			0.0188	
UAUUAGUUAGGAUAUACAUGAGGAUCACCCAUGUCACGGGUCCACUUGUCCUAUGCGUGUAGAAGGAGCGACCC [JL Ceriza mod 4] (puzzle: Exclusion 3)			0.0192	
UAUUAUCAAGCAAGAUCCCACAUGAGGAUCACCCAUGUGCUCGUCUUAUUUCCGGCCUUAUUGGGCUCUCGUCUAAU [JR_STOV1_v2_Sub094] (Eterna round: R97, puzzle: Sensor, turn-off variant 1)	0.034	0.0335		
UAUUAUCAAGCUAGAUCCCACAUGAGGAUCACCCAUGUGCUCGUCUUAAUUCCAGAAUUACUGGGCUCUCGUCUUAU [JR_STOV1_Sub091] (Eterna round: R97, puzzle: Sensor, turn-off variant 1)	0.0455	0.0451		
UAUUCUAGAUAGGAUAUACUUUUUUUUUUUUUCGUAGAAGGAUCUACAUGAGGAUCACCCAUGUUAACAGCAGU [JR_E6_Sub010] (puzzle: Exclusion 6)			0.0516	apparent KD of MS2 coat protein [2]: 0.0665 µM; apparent KD of MS2 coat protein [3]: 0.0404 µM
UAUUUAUAGCAAGGAUAUGAUUAUUAUUAUUUAUCAGAAGGUGCACAUGAGGAUCACCCAUGUUUUAUAAUUUGUAAUUUAAUU [Title] (Eterna round: R96, puzzle: Exclusion NG 1)				apparent KD of MS2 coat protein [4]: 0.0409 µM

Sequence	apparent KD of MS2 coat protein (input ligand: FMN 200 uM) [µM]	apparent KD of MS2 coat protein (input ligand: none) [µM]	apparent KD of MS2 coat protein [1] [µM]	other results
UAUUUGCAAGGAUAUGAUUUAAGUAACAUGAGGAUCACCCAUGUUUAUCCGUUGUUAUGUUCAGAAGGUGCGUGAU [JR_E5_Sub019] (puzzle: Exclusion 5)			0.0502	
UCAACCAGAGGAUAUGCGCAUAGAUCAGACUUUGUUUCUGAACAUGAGGAUCACCCAUGUAGAAGGCUGUAACC [Ex2 #78] (Eterna round: R97, puzzle: Exclusion 2)	0.0285	0.0271		
UCACCGCAAGGAUAUACUUGCGGUGAUGUUCGAAUCUUUCUACUUGAGGAUCACCCAAGUAGAAGGUGCGGUGA [jl-ex2.4.69 ViennaUCT mod] (Eterna round: R97, puzzle: Exclusion 2)	0.0154	0.0122		
UCACGCACUGUUAGGAUAUGUAUUAUGAAGGUAGUACAGAAGGAACAUGAGGAUCACCCAUGUAAUCCUGGGUG [Eternabot (L1) Solution 61] (Eterna round: R97, puzzle: Brourd's mod of Exclusion 4)	0.726	0.0931		
UCACGGGACUAAGGAUAUACAUGAACCAUUUUUGUAGAAGGUAGAAUGUUUGAUCAUAAACUAAACAUGAGGAUCACCCAUGUU [JR_ExcNG1_Sub090] (Eterna round: R96, puzzle: Exclusion NG 1)				apparent KD of MS2 coat protein [4]: 0.0169 µM
UCAUACGGUGAGGAUAUCUCCGCUAAAGUGUGUAGAGAAGGCGCUACAUGAGGAUCACCCAUGUUUGUGGGCAG [Ex-6 Malc#11] (puzzle: Exclusion 6)			0.421	
UCAUACGUUGAGGAUAUCUCAGUUAGAAUAUUUAGAGAAGGCGAUACAUGAGGAUCACCCAUGUUUAUGGGCAU [Ex-6 Malc#6] (puzzle: Exclusion 6)			0.286	apparent KD of MS2 coat protein [2]: 0.346 µM; apparent KD of MS2 coat protein [3]: 0.461 µM
UCAUCGCAAGGAUAUACUUGCGGUGAUGUUCGAAUUCUUCUACUUGAGGAUCACCCAAGUAGAAGGUGCGAUGA [jl-ex2.4.63 ViennaUCT mod] (Eterna round: R97, puzzle: Exclusion 2)	0.0132	0.0135		
UCAUGGUAGCAGGAUAUGCUAUUUAUUUUUUAUGCAGAAGGGCUUACAUGAGGAUCACCCAUGUGUUAGGUUUA [JR_E6_Sub072] (puzzle: Exclusion 6)			0.0813	
UCAUGUAUGUAGGAUAUCGAUGUCGAAAGACAUCGAGAAGGACGUACAUGAGGAUCACCCAUGUAACUUGCAUG [Exclusion 6 - B - 11:a] (puzzle: Exclusion 6)			0.0188	apparent KD of MS2 coat protein [2]: 0.0129 µM; apparent KD of MS2 coat protein [3]: 0.0129 µM
UCCCGGGUAGGAUAUGCUAGGGUAUGUUCACUUGAUUUAGGACAUGAGGAUCACCCAUGUAGAAGGGCCCGUCG [Eternabot (L1) Solution 25] (Eterna round: R97, puzzle: Exclusion 2)	0.286	0.459		
UCCUCACAUGAGGAUCACCCAUGUUAGGAUAUCCACCGUUGAUGGUGCCGAAUCGGUAGGAGAAGGAACAUACA [EX1 B.18] (Eterna round: R97, puzzle: Exclusion 1)	0.0588	0.0241		
UCGACGUAAGGAUAUAUAAGGAACGAAGUAAGUUGUAGAAAAUAGAAGGUACAUGAGGAUCACCCAUGUUAAGA [JR_Exclu4_Sub061] (puzzle: Exclusion 4)			0.0196	apparent KD of MS2 coat protein [2]: 0.0194 µM; apparent KD of MS2 coat protein [3]: 0.0189 µM
UCGACUACAGUAGGAUAUGUAGGAUAUGUGGUUGAGGAUCACCCAACCACUUCAACGACAGAAGGACAGAAGGACUGACAUCGU [pwkr exNG2 2xFMN 1xF5.4] (Eterna round: R96, puzzle: Exclusion NG 2)	0.0215	0.0204		apparent KD of MS2 coat protein [4]: 0.0142 µM
UCGCUCCGUGUAGGAUAUCGCCGUUCUAUUCGGCGAGAAGGACAUGAGGAUCACCCAUGUAUGUUAUUAUCACGCGUGGCGCAC [Design 57] (Eterna round: R96, puzzle: Exclusion NG 1)	0.0215	0.0196		apparent KD of MS2 coat protein [4]: 0.0139 µM
UCGCUGCGAGGAUAUACGUGCGCGCGCGCGCGCGCGCGCGUACAUGAGGAUCACCCAUGUAGAAGGCGCUCUGC [Apr-15 SS2-2] (puzzle: Exclusion 2)			0.0229	
UCGUCGUCGUCAGGAUAUAGUCUUAUUGUUAUGCUUUUGUUCGUACAUGAGGAUCACCCAUGUGGCUAGAAGGGACUAAAGUUU [JR_ExcNG2_Sub017] (Eterna round: R96, puzzle: Exclusion NG 2)	0.0193	0.023		apparent KD of MS2 coat protein [4]: 0.0172 µM
